# Data taken from IntAct's records for PubMed 18084303.
# B1: Neuroligin-1 (Mus musculus), Q99K10-1 (parent)
# chain: MALPRCMWPNYVWRAMMACVVHRGSGAPLTLCLLGCLLQTFHVLSQKLDDVDPLVTTNFGKIRGIKKELNNEILGPVIQFLGVPYAAPPTGEHRFQPPEPPSPWSDIRNATQFAPVCPQNIIDGRLPEVMLPVWFTNNLDVVSSYVQDQSEDCLYLNIYVPTEDGPLTKKHTDDLGDNDGAEDEDIRDSGGPKPVMVYIHGGSYMEGTGNLYDGSVLASYGNVIVITVNYRLGVLGFLSTGDQAAKGNYGLLDLIQALRWTSENIGFFGGDPLRITVFGSGAGGSCVNLLTLSHYSEGNRWSNSTKGLFQRAIAQSGTALSSWAVSFQPAKYARILATKVGCNVSDTVELVECLQKKPYKELVDQDVQPARYHIAFGPVIDGDVIPDDPQILMEQGEFLNYDIMLGVNQGEGLKFVENIVDSDDGVSASDFDFAVSNFVDNLYGYPEGKDVLRETIKFMYTDWADRHNPETRRKTLLALFTDHQWVAPAVATADLHSNFGSPTYFYAFYHHCQTDQVPAWADAAHGDEVPYVLGIPMIGPTELFPCNFSKNDVMLSAVVMTYWTNFAKTGDPNQPVPQDTKFIHTKPNRFEEVAWTRYSQKDQLYLHIGLKPRVKEHYRANKVNLWLELVPHLHNLNDISQYTSTTTKVPSTDITLRPTRKNSTPVTSAFPTAKQDDPKQQPSPFSVDQRDYSTELSVTIAVGASLLFLNILAFAALYYKKDKRRHDVHRRCSPQRTTTNDLTHAPEEEIMSLQMKHTDLDHECESIHPHEVVLRTACPPDYTLAMRRSPDDIPLMTPNTITMIPNTIPGIQPLHTFNTFTGGQNNTLPHPHPHPHSHSTTRV
# Variants of: B1
# Conditions: with NRXN1, P58400-1
# Chain of NRXN1, P58400-1 (P58400 other isoform, or with tags, fused parts or gaps): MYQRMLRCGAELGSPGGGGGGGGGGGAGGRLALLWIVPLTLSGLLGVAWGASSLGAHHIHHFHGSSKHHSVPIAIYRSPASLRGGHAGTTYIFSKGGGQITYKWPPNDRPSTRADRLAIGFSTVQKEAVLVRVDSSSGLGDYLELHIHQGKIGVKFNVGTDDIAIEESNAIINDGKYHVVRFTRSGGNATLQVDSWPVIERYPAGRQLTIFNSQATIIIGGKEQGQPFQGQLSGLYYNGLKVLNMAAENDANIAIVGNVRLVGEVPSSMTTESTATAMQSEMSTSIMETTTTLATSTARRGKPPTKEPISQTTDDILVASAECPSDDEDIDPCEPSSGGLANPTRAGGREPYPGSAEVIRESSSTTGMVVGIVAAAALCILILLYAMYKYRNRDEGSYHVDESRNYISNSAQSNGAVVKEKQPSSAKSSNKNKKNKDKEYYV
row,Variant,effect of a mutation on the interaction
1,E397A,disrupting interaction
2,N400A,disrupting interaction
